US20220387487A1, “COMPOSITIONS AND METHODS FOR TREATMENT OF CANCER” (Aleta Biotherapeutics Inc., priority 2019, published 2022)
Several values for one entry are separate records, joined by “and”; a condition that tells them apart may be missing. Equal values may be shown once.

T1: CLL-1 (CLEC12A) on CLL-1 positive cell lines (U937, OCI-AML-5) (human, UniProt Q5QGZ9 1-265)
T1 construct: whole, on cells; also called MICL
T1 sequence: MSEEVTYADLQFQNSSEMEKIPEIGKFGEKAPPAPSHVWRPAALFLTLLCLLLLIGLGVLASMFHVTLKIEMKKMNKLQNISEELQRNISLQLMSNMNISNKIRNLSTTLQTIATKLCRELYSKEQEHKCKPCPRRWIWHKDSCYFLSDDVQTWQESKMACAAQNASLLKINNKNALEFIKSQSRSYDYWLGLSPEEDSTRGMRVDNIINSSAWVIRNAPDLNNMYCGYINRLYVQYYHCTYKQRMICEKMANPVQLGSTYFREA

T2: full-length CLEC12A, amino acid 254 K version, on transfected HEK-293T cells (Homo sapiens (Human), UniProt Q5QGZ9 1-265)
T2 construct: GenScript cDNA, UniProt Q5QGZ9-1 as printed; also called K form; K version of CLEC12A
T2 sequence: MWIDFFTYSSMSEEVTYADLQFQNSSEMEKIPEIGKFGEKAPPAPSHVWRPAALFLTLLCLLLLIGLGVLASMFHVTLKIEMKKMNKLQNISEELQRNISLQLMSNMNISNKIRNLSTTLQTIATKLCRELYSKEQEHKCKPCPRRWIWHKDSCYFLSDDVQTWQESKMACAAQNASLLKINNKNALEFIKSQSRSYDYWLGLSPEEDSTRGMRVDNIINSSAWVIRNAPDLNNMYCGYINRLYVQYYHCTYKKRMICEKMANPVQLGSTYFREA

T3: full-length CLEC12A, version with Q at amino acid 254, on transfected HEK-293T cells (Homo sapiens (Human), UniProt Q5QGZ9 1-265)
T3 construct: Generated by mutagenesis of the K version; also called Q form
T3 sequence: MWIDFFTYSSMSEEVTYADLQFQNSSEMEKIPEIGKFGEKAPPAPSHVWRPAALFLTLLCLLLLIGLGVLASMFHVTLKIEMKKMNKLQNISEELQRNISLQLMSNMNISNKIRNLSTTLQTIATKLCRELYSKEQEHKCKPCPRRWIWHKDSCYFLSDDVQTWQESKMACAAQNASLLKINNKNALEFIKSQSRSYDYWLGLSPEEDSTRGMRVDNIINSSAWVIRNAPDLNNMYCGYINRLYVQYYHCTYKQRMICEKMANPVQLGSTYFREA

T4: CLEC12A (Homo sapiens, UniProt Q5QGZ9)
T4 construct: literature AbClonal (protein); Genscript (cDNA)
T4 sequence (Q5QGZ9 1-275 isoform Q5QGZ9-1): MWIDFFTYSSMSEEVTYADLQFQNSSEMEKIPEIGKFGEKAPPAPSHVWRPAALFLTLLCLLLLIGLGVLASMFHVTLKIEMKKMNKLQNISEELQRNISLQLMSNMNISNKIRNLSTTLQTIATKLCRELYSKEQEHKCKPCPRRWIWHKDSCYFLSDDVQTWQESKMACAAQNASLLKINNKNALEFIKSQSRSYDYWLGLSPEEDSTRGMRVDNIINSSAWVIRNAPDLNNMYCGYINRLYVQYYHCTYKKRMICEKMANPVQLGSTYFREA


Columns and labels:
[1] = molecular target: T1, CLL-1 (CLEC12A) on CLL-1 positive cell …; experiment: flow cytometry on CLL-1 positive U937 cells, expressed fusion protein, detection with FMC63-PE, % Binding
[2] = molecular target: T1, CLL-1 (CLEC12A) on CLL-1 positive cell …; experiment: flow cytometry on U937 cells, purified fusion protein, a-His-PE detection, % Binding
biotinylated CD33 = biotinylated CD33 (UniProt P20138 18-259, biotinylated (site not stated)); experiment: ELISA: fusion protein captured on FMC63, biotinylated CD33 at 0.5 µg/ml, HRP-SA
[3] = molecular target: T1, CLL-1 (CLEC12A) on CLL-1 positive cell …; experiment: cell-based or functional assay
[4] = molecular target: T2, full-length CLEC12A, amino acid 254 K …; experiment: flow cytometry on transfected HEK-293T cells, HIB19-PE detection
[5] = molecular target: T3, full-length CLEC12A, version with Q at …; experiment: flow cytometry on HEK-293T cells transfected with CLEC12A 'Q' version, purified fusion protein, detection with HIB19-PE, % Binding
[6] = molecular target: T1, CLL-1 (CLEC12A) on CLL-1 positive cell …; experiment: flow cytometry on U937 cells (cell line per paragraph 272), purified fusion protein, detection with FMC63-PE, % Binding
[7] = molecular target: T1, CLL-1 (CLEC12A) on CLL-1 positive cell …; experiment: flow cytometry on CLL-1 positive U937 cells, FMC63-PE detection
[8] = molecular target: CLEC12A as named in the ELISA column of Table 8 (UniProt Q5QGZ9); experiment: ELISA (protocol as printed: FMC63 coat, fusion protein titrated, HRP anti-His)
CLEC12A = molecular target: T4, CLEC12A; settings: CLEC12A from AbClonal or cDNA from Genscript; previous studies; cited from earlier work

EC50 [1] [µg/mL] | EC50 [2] | binding result (biotinylated CD33) | fold weaker binding than to the Q form [4] [fold] | EC50 [5] | EC50 [6] | EC50 [7] [nM] | EC50 [8] [nM] | Molecule | CLEC12A-cell cytotoxicity (IC50 n = 2-3) [3] [nM] | binding to CLEC12A containing a Lysine residue at amino acid 254 (CLEC12A)
0.0449 | 0.00114 µg/mL and 0.0261 nM | no binding | > 10000 | 0.0048 nM and 0.00021 µg/mL | 0.00406 µg/mL and 0.0865 nM | 1 | 0.013 | anti-CLL-1 VHH(2H3)-CD19 variant (construct #330) (other, Fusion of anti-CLL-1 VHH 2H3, linker, CD19 variant extracellular domain and His tag; also called fusion protein #330; single VHH #330 fusion protein) QVQLQESGGGLVQAGGSLRLSCVASGSIRSINVMGWYRQAPGKQRELVAACASDGNTYYADSVKGRFTISRDNAEKTVYLQMNNLKPDDTAVYYCDANSRGNYYSGQGTQVTVSSTSGPGGQGAGGGGSGGGGSGGGGSGGGGSPEEPLVVKVEEGDTAALWCLKGTSDGPTQQLTWSRESPLKPFLKYSLGVPGLGVHVRPDAISVVIRNVSQQMGGFYLCQPGPPSEKAWQPGWTVNVEGSGELFRWNVSDLGGLGCGLKNRSSEGPSSPSGKLMSPKLYVWAKDRPEIWEGEPPCLPPRDSLNQSLSRDLTVAPGSTLWLSCGVPPDSVSRGPLSWTHVHPKGPKSLLSLELKDDRPARDMWVMGTSLMLPRATAQDAGKWYCHRGNLTMSFHLEITARPSRHHHHHH | 0.0078 | –
– | – | – | – | – | – | – | – | VHH clone 2H3: anti-CLL-1/CLEC12A VHH (protein) VHH: QVQLQESGGGLVQAGGSLRLSCVASGSIRSINVMGWYRQAPGKQRELVAACASDGNTYYADSVKGRFTISRDNAEKTVYLQMNNLKPDDTAVYYCDANSRGNYYSGQGTQVTVSS | – | did not bind
